Experimental data taken from publication PMC8096283 (Nucleic Acids Research, 2020).

B1: HMfB_(D14A K30A E34A) (natural protein)
chain: not shown
B2: HMfB homodimer (Methanothermus fervidus histone HMfB) (natural protein)
chain: not shown
B3: HMfA_(K31A E35A) (natural protein)
chain: not shown
B4: HMfA homodimer (Methanothermus fervidus histone HMfA) (natural protein)
chain: not shown

Molecular target: the molecule itself
Assay: magnetic tweezers force spectroscopy

Protein | stacking energy
B1 | 1.07 kBT
B2 | 3.44 kBT
B3 | 1.18 kBT
B4 | 1.81 kBT
